B1: R29 (antibody, V domains shown)
VH: EVQLLESGGGLVQPGRSLRLSCAASGFTFDDYGIHWVRQAQGKGLEWVSGISWNSGTIGYADSVKGRFTISRDNAKNSLYLQMNSLRAEDTALYYCAKDRGGKLRWYEREEYYFDYWGQGTLVTVSS
VL: SYVLTQPPSVSVAPGQTAKITCGGNDIGRKSVYWYQQKPGQAPILVIYYSSDRPSGIPDRFSGSNSGNTATLTIGRVEAGDEADYYCQVWDSTSDHVIFGGGTKLTVL
B2: R44 (antibody, V domains shown)
VH: QVQLVQSGGGLVQPGGSLRLSCAASEITVSSNYMSWVRQAPGKGLEWVSVLYSGGSTDYADSVKGRFTISRDNSKNTLYLQMNSLRAEDTAVYYCAREVYGMDVWGQGTTVTVSS
VL: DIVLTQTPSSLSASVGDRVTITCRASQGISSYLAWYQQKPGKAPKLLIYAASTLQSGVPSRFSGSGSGTDFTLTISSLQPEDFATYYCQELSTYPVTFGQGTKVEIK
B3: R157 (antibody, V domains shown)
VH: QVQLVQSGAEVKKPGSSVKVSCKASGGTFSSYAINWVRQAPGQGLEWMGGIIPILGIANYAQKFQGRVTITADKSTSTAYMELSSLRSEDTAVYYCAREQGYSGSGANYYFDYWGQGTLVTVSS
VL: QSVLTQPPSVSGAPGQRVTVSCTGSSSNIGAGYDVHWYQQLPGTAPKLLIYGNTNRPSGVPDRFSGSKSGTSASLAITGLQAEDEADYYCQSYDSSLSDVVFGGGTQLTVL
B4: R14 (antibody, V domains shown)
VH: QVQLVQSGAEVKKPGSSVKVSCKASGGTFSSYTISWVRQAPGQGLEWMGRIIPILGIANYAQKFQGRVTITADKSTSTAYMELSSLRSEDTAVYYCAREIGYSSSGSNYYMDVWGKGTTVTVSS
VL: QSVLTQPPSVSGAPGQRVTISCTGSSSNIGAGYDVHWYQQLPGTAPKLLIYGNSNRPSGVPDRFSGSKSGTSASLAITGLQAEDEADYYCQSYDSSLSGVVFGGGTKLTVL

What was measured:
[1] = biological target: SARS-CoV-2 RBD蛋白 (ELISA coating antigen) (SARS-CoV-2, UniProt P0DTC2 319-541); assay: ELISA, plate coated with SARS-CoV-2 RBD, antibody 1 μg/mL, goat anti-human IgG-HRP
SARS-CoV-2 S蛋白 (刺突糖蛋白) = SARS-CoV-2 S蛋白 (刺突糖蛋白) (SARS-CoV-2, UniProt P0DTC2 14-1273); assay: cell-based or functional assay
[2] = biological target: SARS-CoV-2 S-RBD蛋白 (Acrobiosystems, cat.# SPD-C52H3) (SARS-CoV-2, UniProt P0DTC2 319-537); assay: SPR (Biacore 8K), antibody captured on Protein A chip, S-RBD 50-0.78125 nM, 1:1 Langmuir fit

Binder | ELISA值 (OD450) [1] | 假病毒的抑制率IC50 (Luciferase RLU, Spike假病毒, 293T-ACE2细胞) (SARS-CoV-2 S蛋白 (刺突糖蛋白)) | Kd [2]
B1 | 1.06 OD450 |  | 
B2 | 1.17 OD450 | 1.6 µg/mL | 0.205 nM
B3 | 1.14 OD450 |  | 
B4 | 1.01 OD450 |  | 
